# Reference: the supplement of paper PMC12455559
# ± gives the standard deviation of the averaged measurements.
# How the values were obtained:
# [1] = PET hydrolysis, aromatic products released after 48 h (umol product/mg enzyme); higher = more PET depolymerization activity
# How it was run: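 The measure of PET hydrolysis activity is aromatic product released into the supernatant, given per mg enzyme. Nickel-purified, SUMO-cleaved enzyme without tag was added at 5 μg (50 μL) to 3.5 mg amorphous PET film or crystalline PET powder in 450 μL of citrate, phosphate or glycine buffer spanning pH 4.5 to 8.5. After 48 h at 40 or 60 °C in sealed plates without shaking, absorbance at 260 and 280 nm was taken against buffer blanks.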
# [2] = melting temperature (DSF); higher = more thermostable
# Method: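 Candidate PET hydrolases were expressed in E. coli C41(DE3) in 2 mL autoinduction cultures in 24-deep-well plates, Ni-bead purified and released by SUMO protease cleavage on an OT-2 robot. Yield per well was measured by BCA; values below 25 ug (0.1 mg/mL) are below the detection threshold. Melting temperature was measured by differential scanning fluorimetry with Sypro Orange, ramping from 25 C at 0.3 C/step.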
# [3] = purified protein yield per well (BCA); higher = higher soluble expression
# How it was run: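 Purified protein yield per well is reported, as measured by the Pierce Rapid Gold BCA kit. The enzymes came from E. coli C41(DE3) autoinduction cultures of 2 mL with 100 µg/mL kanamycin, held at 37 °C for 2 h and 18 °C for 40 h, then lysed and purified on Ni-charged magnetic beads with SUMO protease release. The detection threshold is 25 ug (0.1 mg/mL), and lower values are under it.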
# [4] = substrate: aFilm, 40 °C, pH 4.5
# [5] = substrate: aFilm, 40 °C, pH 5.5
# [6] = substrate: aFilm, 40 °C, pH 6.5
# [7] = substrate: aFilm, 40 °C, pH 7.5
# [8] = substrate: aFilm, 60 °C, pH 4.5
# [9] = substrate: aFilm, 60 °C, pH 5.5
# [10] = substrate: aFilm, 60 °C, pH 6.5
# [11] = substrate: aFilm, 60 °C, pH 7.5
# [12] = substrate: cryPow, 40 °C, pH 4.5
# [13] = substrate: cryPow, 40 °C, pH 5.5
# [14] = substrate: cryPow, 40 °C, pH 6.5
# [15] = substrate: cryPow, 40 °C, pH 7.5
# [16] = substrate: cryPow, 60 °C, pH 4.5
# [17] = substrate: cryPow, 60 °C, pH 5.5
# [18] = substrate: cryPow, 60 °C, pH 6.5
# [19] = substrate: cryPow, 60 °C, pH 7.5
Sequence,"PET hydrolysis [1, 4]","PET hydrolysis [1, 5]","PET hydrolysis [1, 6]","PET hydrolysis [1, 7]","PET hydrolysis [1, 8]","PET hydrolysis [1, 9]","PET hydrolysis [1, 10]","PET hydrolysis [1, 11]","PET hydrolysis [1, 12]","PET hydrolysis [1, 13]","PET hydrolysis [1, 14]","PET hydrolysis [1, 15]","PET hydrolysis [1, 16]","PET hydrolysis [1, 17]","PET hydrolysis [1, 18]","PET hydrolysis [1, 19]",melting temperature [2] [C],purified protein yield per well [3] [µg],"PET hydrolysis ([1]; substrate: cryPow, 40 °C, pH 8.5)","PET hydrolysis ([1]; substrate: cryPow, 60 °C, pH 8.5)"
ADNPFQRGPNPTVASVAATRGTFATAQTSVPAGNGFGGGVVYYPTDTSQGTFGGVAIVPGYSALFADEEAWMGPWLASFGFVVIGIETNSRTDSADARGTELLAALDYLTQRSPVRDRVDPNRLSVVGHSAGGAGVLSALLRRPSLKAGVGLAPGSPVGNYDLYSDRVPTMFISGQRDTTVTQSYLNGLYSTLPATTPSAWVEITGVDHLFATRANTTEMRVLIPWLKIWVDNDTRYTQFLCPLADSTGISMYRDKCPYVPPGGSSPSPSASPSSTPSRSPSPSPSPSPSPSPSPSPSPSPSPSPSASPSLPPPGACVAEYRTMNSWPGGYQAMVTVTAGGTAVNGWTVRWTLGGGQTISQLWNGTLSTSGSAVTVKNASYNGSIPASGSATFGFLATGTPSTPSLTCTSP [ESM036],< 3,< 3,< 3,< 3,< 3,< 3,< 3,< 3,< 3,< 3,< 3,< 3,< 3,< 3,< 3,< 3,49.6,376,–,–
ADNPFQRGPNPTVESVAATRGTFATAQTSVPAGNGFGGGVVYYPTDTSQGTFGGVAIVPGYSALFADEEAWMGPWLASFGFVVIGIETNSRTDSADARGTQLLAALDYLTQRSPVRDRVDPNRLSVVGHSAGGAGVLSALLRRPSLKAGVGLAPGSPVGNYDLYDDRVPTMFISGQRDTTVTRSYLNGLYGTLPATTPSAWVEITGVDHLFATRANTTEMRVLIPWLKIWVDDDTRYTRFLCPLADSTGISMYRDTCPYVPPGGSSPSPSASPSPSPSPSPSPSPSPSPSPSPSPSPSPSPSASPSASPSPPPPGACAAEYHTVNSWPGGYQASVTVTAGASAVQGWTVRWTLGSGQSITQLWNGTLSTSGSAVTVKNASYNGTIPASGSATFGFLATGTPSAPPLTCTSP [ESM067],< 3,< 3,< 3,< 3,< 3,< 3,< 3,< 3,< 3,< 3,< 3,< 3,< 3,< 3,< 3,< 3,57.1,447,–,–
ADNPHQRGPNPTQASITANRGTFATAETSVGGGNGFGAAKIYYPTDTSQGTFGAIAVVPGYTATWAAEGAWMGHWLASFGFVVIGIDTLNRNDFDVARGTQLLAALDYLTQRSSVRTRVDPNRLAVMGHSMGGGGTISAALRWPTLKAAIGLAPYSPSQTTSGLQVPTMLLAGQNDGTSTPASIISLYNNIPASTEKSYLELAGAGHGFPTSNNSVMTRKVIPWMKIFIDQDARYTQFLCPLQDWTGIRSYRSSCPLLPGATFSLAGSASGKCVDVPGRVQTNGTGLIIWTCNGAVNQQWTRTAAGELRIYDNAKCMDANASGPGTRVTINSCNGGNSQKWTVNANGTVTNAASGRCIDTGGTADNAPVVVNTCTGGTSQT [ESM163],–,–,–,–,–,–,–,–,< 3,< 3,< 3,< 3,< 3,< 3,< 3,< 3,58,96.4,–,–
ADNPHQRGPNPTQASVAASRGTFATSETSVGGGNGFGGAKIYYPTDTSQGKFAALAVSPGYTATWAAEGAWMGHWLASFGFVIIGIDTISRTDWDVARGDQLLAALDYLTQRSSVRDRVDASRVGVMGHSMGGGGAISAGLKRPSLKVVIGNAPYSASQNLTNMRVPVALLAGQRDTTVTPATTNSYYNQVPATTEKMYLELTNAPHSFPTSNNSVMTRKVIPWMKIFLDQDTRYQQFLCPLLDNTGIRTYRSSCPLIGDPMPPADTYRLAGAASGKCADVEGRSQANGAKLLLWTCNGQTNQRWTQTATGELRVYDNPKCVEAGTSAQGTRVTINACNGGNSQKWTVNANGTVTNAVSGRCLDAAGTADNSPIVVNTCTGAGSQNWSKRS [TEP049],–,–,–,–,–,–,–,–,< 3,< 3,< 3,< 3,< 3,< 3,< 3,< 3,50.8,68.7,–,–
ADNPYERGPAPTAASIAADRGPFATAQVTVPRGNGFGGGVIYYPTDTSQGTFGAIAIAPGFGTAWSYYAWQGPRLASFGFVVIGIETNTLNDYADARATQLLAALDYLVNSSPVRDRVDRNRLAVGGHSMGGGGAILAANQRPSLLTAVGQAPYVPDGSLATIKSPTIIFAGQADGTVTPQYAQNAYNTIPSSVERAYVEIANEGHGFPAGGGGGNSGAFARTMMIWMKLFIDKDTRYAPFLCPSLSNANGISKYMASCPLDPPGGGPTASPTASPTVSPTVSPSGTPPATSAIRGVGSGRCLDVNGASQANGAQAQIWDCNGQNNQKWTTTSAGELRVYGNKCLDVNGGGTADGTSVIIWDCNGQNNQKWRLNTDGTITAVGANKCLDVSGAGTANGTKVQIWTCNGQNNQKWTRT [ESM038],–,–,–,–,–,–,–,–,4,10,16,19,< 3,< 3,4,6,68.8,190,–,–
ADNPYERGPAPTEASVEAPRGPYAVSETTVSPLAVTGFGGGTVYYPTSTADGTFGAIAVSPGYTGTQSSIAWLGPRLASQGFVVFTIDTLTTLDQPDSRGRQLLAALDYLTQKSSVRGRIDSTRLGVMGHSMGGGGSLEAAKSRPSLQAAIPLTPWNLDKTWPEVATPTLIFGADGDTIAPVATHAEPFYTSLPASLDRAYLELNGATHFTPNTSNTTIAKYSIAWLKRFIDDDTRYEQFLCPLPRPGLTIEEYRGNCPHTS [TEP117],< 3,< 3,< 3,< 3,< 3,< 3,< 3,< 3,< 3,< 3,< 3,< 3,< 3,< 3,< 3,< 3,40,202,–,–
ADNPYERGPAPTTSSIEASRGPFATASTTVSSLVSGFGGGTIYYPTSTAEGTFGAVAISPGYTGTQSSIAWLGPRIASQGFVVITIDTNTIYDQPDSRASQLLAALDYLTQSSSVRTRIDATRLGVMGHSMGGGGTLRAAESRPALQAAIPLTAWHTDKTWGNVRVPTLVIGAENDSIAPVATHSEPFYTSLPSTLDKAYLELNAADHFAPNSSNTTIAKYSISWLKRFIDNDTRYEQFLCPPPSRSLLIEEYRDTCPHS [TEP108],–,–,–,–,–,–,–,–,< 3,< 3,< 3,< 3,–,–,–,–,42.1,53.3,–,–
ADNPYERGPDPTERSIEAARGPFGVSTERVGSLGVSDFGGATIYHPTDRSQTYGAIAISPGFTAGWTSLSWLGERLASQGFVVIGIDTITRLDQPGSRGRQLLAALDYATTRSNARALIDAQRLAVAGHSMGGGGTLEAAAERPSLKAAIPLAPWNLDKSWAEVRTPTLIIGGESDNIAAVNTHSIPFYNSLSNAREKAYMEIDNGTHFFPNTANTLMAKYMISWMKRYIDDDTRYEQFLCPPPDDRGISEYRHTCPGS [DP088],–,–,–,–,–,–,–,–,–,< 3,< 3,< 3,–,< 3,< 3,< 3,43.9,70,< 3,< 3
ADNPYERGPDPTESSIEASRGPFAVSQTTVSSLAVTGFGGGTIYYPTDTSQGTFGAVAISPGYTADQSSIAWIGPRLASQGFVVFTIDTITRYDQPASRGDQLLAALDYLTQRSSVRGRIDSSRLGVAGHSMGGGGTLEAAEERPSLQAAVPLAPWNLQKNFSGVRVPTFIIGGESDTVAPVATHSEPFYTSLPSTLDKAYMELNNASHFFPNTPNTTMAKYMISWFKRFIDDDTRYDQFLCPNPSGLAIEEYRSTCPY [TEP089],–,–,–,–,–,–,–,–,< 3,< 3,< 3,< 3,< 3,< 3,< 3,< 3,44.2,105,–,–
ADNPYERGPDPTPASVAAPNGPFATAQVSVPPGYGFNGGMIYYPTDTSQGTFGAIAISPGYTALFSVELAWMGPRLASQGFVVIGIETNDRNDFDTARGTQLLAALDYLTGQSSVRSRVDPNRLAVAGHSMGGGGAFSAALRRPALKAAVGFTPFSPSQNLTNMQVPALLYSGQNDTVTTPSSVSNLYNGLPSTTEGAYLEAAGLDHSFPTRPNTLLMRTMIPWVKIFLDNDLRYTQFLCPLMDSSGVLQYRNTCPLVPPGLPSPSPTTAPPTTAPPTTAPPTTAPPTTAPPTTAPPTTAPPAGACTATYQTIGSWPGGFQGEVTVRAGNSAINGWTVGWSLGSGQSITQIWNGTLSTSGSSVSVRNVSYNGSLPAAGTVTFGFLGSGSPSTPSTVTCTSP [ESM012],< 3,< 3,< 3,< 3,< 3,< 3,< 3,< 3,< 3,9.5 ± 3.5,21.5 ± 3.5,21.5 ± 0.71,< 3,< 3,< 3,< 3,60.7,519,–,–
ADNPYERGPDPTRTSVATERGPFANTSVSVPSGHGFNGGRIYYPTDTSQGTFGAIAISPGYTALFSVELAWMGPWLASHGFVVIGIETNSTNDFDTARGTQLLAALDYLTQQSPVRDRIDPSRLAVSGHSMGGGGALSAAMRRSSLKAVVGITPFSPSSNLASNQVPTMVISGQADTVVTPSYALDLYNSLPASTESVYLEVAGGDHGFMVGRSNPVLIRTMLPFLKMFVDNDTRYSQFLCPLMDNSGVVTYRSTCPLLPTPPTTPPPTGDPTSPPPSTDPTTPPPSGSTGQIVGTQSNRCIDVPNSSRNNGTRVQLYDCHGQANQTWTYNSTTKQLRVYGDMCLDAAGSGNGAAVQIYNCHGQTNQQWNLNSNGTISGVQSNRCLDVWSTNNGAQIQLYDCHGQTNQQFRIRS [ESM173],< 3,< 3,< 3,< 3,< 3,< 3,< 3,< 3,3.5 ± 0.71,11.5 ± 0.71,20.5 ± 0.71,11,< 3,< 3,< 3,< 3,61.6,199,–,–
